Results: patent publication US20170008928A1, “NOVEL PEPTIDES AND PEPTIDE DERIVATIVES AND USES THEREOF” (Novo Nordisk A/S, priority 2015, published 2017)

What was measured:
[1] = Plasma exposure after the last dose in DIO mini-pigs; format: in vivo, Göttingen mini-pigs; conditions: combination group, liraglutide […]
Procedure: The CCK derivative was dissolved in the following buffer: 8 mM phosphate, 184 mM propylene glycol, 58 mM phenol, pH 7.4 concentrations ranging from 2000-10000 nmol/mL corresponding to dose volumes ranging from 0.00075-0.001 mL/kg. Liraglutide was dissolved in 8 mM phosphate, 184 mM propylenglycol, 58 mM phenol, pH 8.15 (1600 nmol/mL), dose volume was 0.001 mL/kg and this formulation also served as a vehicle for all 3 treatment groups. Animals were dosed subcutaneously once daily with vehicle, CCK derivative, liraglutide, or liraglutide in combination with the CCK derivative (given as two separate injections in each side of the neck). After the last dose blood samples were obtained in EDTA coated tubes at selected time points for up to 480 hours after dosing. Blood was sampled through central-venous catheters implanted under general anaesthesia after 11 weeks of treatment.
The resulting plasma was pipetted into Micronic tubes on dry ice, and kept at −20° C. until analysed for plasma exposure of liraglutide and the CCK derivative. Plasma content of the CCK derivative was measured using LC-MS method II, as described in Example 93. Plasma content of liraglutide was measured using LOCI (Luminescence Oxygen Channeling Immunoasssay). LOCI is generally described for the determination of insulin by Poulsen and Jensen in Journal of Biomolecular Screening 2007, vol. 12, p. 240-247. The donor beads were coated with streptavidin, while acceptor beads were conjugated with a monoclonal antibody recognising a C-terminal epitope of the peptide. Another monoclonal antibody, specific for the N-terminus, was biotinylated. The three reactants were combined with the analyte and formed a two-sited immuno-complex. Illumination of the complex released singlet oxygen atoms from the donor beads, which were channelled into the acceptor beads and triggered chemiluminescence which was measured in an Envision plate reader. The amount of light was proportional to the concentration of the compound.

[2] = molecular target: T1, human cholecystokinin-1 receptor (human, UniProt P32238 1-428); assay: cell-based or functional assay
T1 sequence (looked up): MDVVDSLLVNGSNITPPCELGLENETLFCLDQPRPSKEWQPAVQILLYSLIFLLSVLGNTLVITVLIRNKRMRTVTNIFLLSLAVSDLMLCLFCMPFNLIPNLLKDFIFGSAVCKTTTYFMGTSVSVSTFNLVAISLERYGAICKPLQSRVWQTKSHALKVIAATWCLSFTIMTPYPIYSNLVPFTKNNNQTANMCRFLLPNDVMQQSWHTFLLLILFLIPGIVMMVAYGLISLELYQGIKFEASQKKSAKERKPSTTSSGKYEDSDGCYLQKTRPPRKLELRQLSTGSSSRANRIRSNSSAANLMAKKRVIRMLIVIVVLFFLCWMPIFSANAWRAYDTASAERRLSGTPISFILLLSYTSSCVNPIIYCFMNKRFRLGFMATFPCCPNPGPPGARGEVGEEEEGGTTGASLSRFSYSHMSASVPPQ

[3] = molecular target: T2, human cholecystokinin-2 receptor (human, UniProt P32239 1-447); assay: cell-based or functional assay
T2 sequence (looked up): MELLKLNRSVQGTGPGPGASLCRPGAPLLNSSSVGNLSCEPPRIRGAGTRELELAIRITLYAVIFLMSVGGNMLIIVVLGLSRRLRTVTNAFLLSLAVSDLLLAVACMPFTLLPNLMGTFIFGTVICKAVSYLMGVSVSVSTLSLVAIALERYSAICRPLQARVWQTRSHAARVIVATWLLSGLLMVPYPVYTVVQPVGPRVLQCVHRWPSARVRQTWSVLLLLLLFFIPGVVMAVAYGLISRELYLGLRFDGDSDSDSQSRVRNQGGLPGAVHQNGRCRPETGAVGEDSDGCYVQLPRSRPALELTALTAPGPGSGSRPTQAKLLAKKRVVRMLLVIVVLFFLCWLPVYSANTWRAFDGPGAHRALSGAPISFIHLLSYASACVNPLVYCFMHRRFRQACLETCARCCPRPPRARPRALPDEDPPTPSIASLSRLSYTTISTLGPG

[4] = molecular target: T1, human cholecystokinin-1 receptor; assay: ratio of SPA IC50s, reference CCK-2R

AUCexposure (0-24 h) after last dose, Liraglutide [1] | CCK-1R selectivity (EC50 (CCK-2R)/EC50 (CCK-1R)) [2] | EC50 (CCK-1R) [2] [nM] | EC50 (CCK-2R) [3] [nM] | CCK-1R binding selectivity (IC50 (CCK-2R)/IC50 (CCK-1R)) [4] | Molecule
Liraglutide: 399872 pM*h | – | – | – | – | CCCCCCCCCCCCCCCC(=O)N[C@@H](CCC(=O)NCCCC[C@H](NC(=O)[C@H](C)NC(=O)[C@H](C)NC(=O)[C@H](CCC(N)=O)NC(=O)CNC(=O)[C@H](CCC(=O)O)NC(=O)[C@H](CC(C)C)NC(=O)[C@H](Cc1ccc(O)cc1)NC(=O)[C@H](CO)NC(=O)[C@H](CO)NC(=O)[C@@H](NC(=O)[C@H](CC(=O)O)NC(=O)[C@H](CO)NC(=O)[C@@H](NC(=O)[C@H](Cc1ccccc1)NC(=O)[C@@H](NC(=O)CNC(=O)[C@H](CCC(=O)O)NC(=O)[C@H](C)NC(=O)[C@@H](N)Cc1cnc[nH]1)[C@@H](C)O)[C@@H](C)O)C(C)C)C(=O)N[C@@H](CCC(=O)O)C(=O)N[C@@H](Cc1ccccc1)C(=O)N[C@H](C(=O)N[C@@H](C)C(=O)N[C@@H](Cc1c[nH]c2ccccc12)C(=O)N[C@@H](CC(C)C)C(=O)N[C@H](C(=O)N[C@@H](CCCNC(=N)N)C(=O)NCC(=O)N[C@@H](CCCNC(=N)N)C(=O)NCC(=O)O)C(C)C)[C@@H](C)CC)C(=O)O [Liraglutide, reference compound]
– | 2100 | 0.14 | 290 | 84000 | Asp-sTyr-Nle-Gly-Trp-Nle-DMeAsp-1Nal-amide (peptide)
